Measurements reported in patent US11680267B2, “Co-regulatory sequences based on tetracycline and Cumate” (Shenzhen Eureka Biotechnology Co., Ltd., priority 2020, dated 2023).

Test system: 293T-rtTA3G-CymR cells
Experiment: Luciferase assay, transient transfection, DOX and Cumate vs no inducer (Example 3), rtTA3G cells
Format: cell-based
Method: 293T cells were seeded at 1.5E+06 cells per 60 mm culture dish, and cultured in DMEM (Sigam, D6429) complete medium supplemented with 10% FBS (ExCell, 11H116) at 37° C. and 5% CO 2. After 24 hours of culture, transfection was carried out according to the PEI method. During transfection, 500 μL of transfection reagent which contained 5.5 ug of total plasmid was added to each 60 mm culture dish, and the mass ratio of total plasmid to PEI MAX (Polysciences, 24765-1) was 1:4. The transfection was carried out according to the PEI method, wherein the amount of total plasmid was 5.5 μg. The transfection was performed with plasmids 19BF074:18BF019 at a molar ratio of 10:1 to obtain 293T-rtTAadv-CymR cells; and the transfection was performed with plasmids 19BF075:18BF019 at a molar ratio of 10:1 to obtain 293T-rtTA3G-CymR cells. The plasmid and PEI MAX were mixed uniformly, and then put into a culture dish after standing for 15 minutes. 3 hours after transfection, the medium was changed to a complete DMEM medium, and the transfection operation was completed. After 24 hours of transfection, the cells were digested with trypsin and all seeded in a 100 mm culture dish (Corning, 430167), and 200 μg/ml of hygromycin (Sangon Biotech A600230-0001) drug screening was performed for at least three passages. After the growth of cells under the pressure of drug screening was consistent with that of the original 293T cells, the following experiments were performed.
In Tet-On inducible expression system, the induced transcription activity and the leaky transcription activity were comprehensively affected by the TetO operator linking sequence of the TRE response element and the minimal promoter sequence, as well as different mutants of the transactivator rtTA. In addition, the transport and stability of messenger ribonucleic acid may be enhanced by linking a spliceable intron sequence downstream of the 3′ end of the response element and upstream of the 5′ end of the regulated nucleic acid fragment of interest, but the induced transcription activity and leaky transcription activity of response element of the inducible expression system may also be affected. Based on this, the optimal design scheme of complex response element was determined in this Example based on the induced expression level and the ratio of induced/leaky expression level of Luciferase gene under the combination of the following conditions: (1) Tet-On and Cumate complex response elements TREadvCuO and TRE3GCuO designed based on the TREadv and TRE3G response element sequences; (2) whether an intron was linked; (3) being regulated by the transactivator rtTAadv or rtTA3G. A total of 8 design schemes were compared in this Example: TREadv (18BF232), TREadvCuO (18BF233), TRE3G (18BF234), TRE3GCuO (18BF235), TREadv-BGI (18BF240, wherein the response element was TREadv, and a human β-globulin intron was linked between the 3′ end of the response element and the 5′ end of the Luciferase gene), TREadvCuO-BGI (18BF241, wherein the response element was TREadvCuO, and a human β-globulin intron was linked between the 3′ end of the response element and the 5′ end of the Luciferase gene), TRE3G-BGI (18BF236, wherein the response element was TRE3G, and a human β-globulin intron was linked between the 3′ end of the response element and the 5′ end of the Luciferase gene) and TRE3GCuO-BGI (18BF237, wherein the response element was TRE3GCuO, and a human β-globulin intron was linked between the 3′ end of the response element and the 5′ end of the Luciferase gene). The promoter CMV-BGI (18BF229, wherein the promoter was CMV, and a human β-globulin intron was linked between the 3′ end of the CMV promoter and the 5′ end of the Luciferase gene) was used as a positive control. […]

B1: TRE3GCuO: Tet-On (7xTetO of TRE3G) and Cumate complex response element, CuO 50 bp behind the TATA box (SEQ ID NO: 23) (nucleic acid)
DNA: TCCCTATCAGTGATAGAGAACGTATGAAGAGTTTACTCCCTATCAGTGATAGAGAACGTATGCAGACTTTACTCCCTATCAGTGATAGAGAACGTATAAGGAGTTTACTCCCTATCAGTGATAGAGAACGTATGACCAGTTTACTCCCTATCAGTGATAGAGAACGTATCTACAGTTTACTCCCTATCAGTGATAGAGAACGTATATCCAGTTTACTCCCTATCAGTGATAGAGAACGTATTAGGCGTGTACGGTGGGCGCCTATAAAAGCAGAGCTCGTTTAGTGAACCGTCAGATCGCCTGGAGCAATTCCACATACAAACAGACCAGATTGTCTGTTTGTT
modifications: TRE3GCuO50 response element sequence
increase of induced/leaky expression ratio of TRE3GCuO over TREadvCuO (293T-rtTA3G-CymR cells): 37.6% | induced expression level as % of the induced expression level of TRE3G (293T-rtTA3G-CymR cells / regulation of rtTA3G): 61.8% | induced expression level (293T-rtTA3G-CymR cells, 1 ug/ml DOX and 200 ug/ml Cumate): 4.24E+06 RLU | induced expression level as % of that of the single regulatory response element (293T-rtTA3G-CymR cells, DOX and Cumate): 61.8% | induced/leaky expression ratio (293T-rtTA3G-CymR cells, DOX and Cumate vs no inducer): 2635 times
